Several values for one entry are separate records, joined by “and”; a condition that tells them apart may be missing. Equal entries are not always repeated. Values belong to the substance of their own block, whether it stands above or below them.
Assays:
[1] = molecular target: recombinant human IL-5 protein (human) (UniProt P05113); assay: cell-based or functional assay
[2] = molecular target: recombinant human IL-5 protein (human) (UniProt P05113); assay: ELISA, biotin-human IL-5 on streptavidin plate, Ab 0.0002 nM
[3] = molecular target: recombinant human IL-5 protein (human) (UniProt P05113); assay: ELISA, biotin-human IL-5 on streptavidin plate, Ab 0.0009 nM
[4] = molecular target: recombinant human IL-5 protein (human) (UniProt P05113); assay: ELISA, biotin-human IL-5 on streptavidin plate, Ab 0.0043 nM
[5] = molecular target: recombinant human IL-5 protein (human) (UniProt P05113); assay: ELISA, biotin-human IL-5 on streptavidin plate, Ab 0.0213 nM
[6] = molecular target: recombinant human IL-5 protein (human) (UniProt P05113); assay: ELISA, biotin-human IL-5 on streptavidin plate, Ab 0.1067 nM
[7] = molecular target: recombinant human IL-5 protein (human) (UniProt P05113); assay: ELISA, biotin-human IL-5 on streptavidin plate, Ab 0.5333 nM
[8] = molecular target: recombinant human IL-5 protein (human) (UniProt P05113); assay: ELISA, biotin-human IL-5 on streptavidin plate, Ab 2.6667 nM
[9] = molecular target: recombinant human IL-5 protein (human) (UniProt P05113); assay: ELISA, biotin-human IL-5 on streptavidin plate, Ab 13.3333 nM
[10] = molecular target: recombinant human IL-5 protein (human) (UniProt P05113); assay: FACS blocking: biotin-IL-5 bound to CHOK1 IL-5Ra/CSF2RB cells, Ab 0.0004 nM
[11] = molecular target: recombinant human IL-5 protein (human) (UniProt P05113); assay: FACS blocking: biotin-IL-5 bound to CHOK1 IL-5Ra/CSF2RB cells, Ab 0.0021 nM
[12] = molecular target: recombinant human IL-5 protein (human) (UniProt P05113); assay: FACS blocking: biotin-IL-5 bound to CHOK1 IL-5Ra/CSF2RB cells, Ab 0.0107 nM
[13] = molecular target: recombinant human IL-5 protein (human) (UniProt P05113); assay: FACS blocking: biotin-IL-5 bound to CHOK1 IL-5Ra/CSF2RB cells, Ab 0.0533 nM
[14] = molecular target: recombinant human IL-5 protein (human) (UniProt P05113); assay: FACS blocking: biotin-IL-5 bound to CHOK1 IL-5Ra/CSF2RB cells, Ab 0.2667 nM
[15] = molecular target: recombinant human IL-5 protein (human) (UniProt P05113); assay: FACS blocking: biotin-IL-5 bound to CHOK1 IL-5Ra/CSF2RB cells, Ab 1.3333 nM
[16] = molecular target: recombinant human IL-5 protein (human) (UniProt P05113); assay: FACS blocking: biotin-IL-5 bound to CHOK1 IL-5Ra/CSF2RB cells, Ab 6.6667 nM
[17] = molecular target: recombinant human IL-5 protein (human) (UniProt P05113); assay: FACS blocking: biotin-IL-5 bound to CHOK1 IL-5Ra/CSF2RB cells, Ab 33.3333 nM
[18] = molecular target: recombinant human IL-5 protein with His tag (human) (UniProt P05113); assay: ELISA, biotin-human IL-5 on streptavidin; antibody 0.0002 nM
[19] = molecular target: recombinant human IL-5 protein with His tag (human) (UniProt P05113); assay: ELISA, biotin-human IL-5 on streptavidin; antibody 0.0009 nM
[20] = molecular target: recombinant human IL-5 protein with His tag (human) (UniProt P05113); assay: ELISA, biotin-human IL-5 on streptavidin; antibody 0.0043 nM
[21] = molecular target: recombinant human IL-5 protein with His tag (human) (UniProt P05113); assay: ELISA, biotin-human IL-5 on streptavidin; antibody 0.0213 nM
[22] = molecular target: recombinant human IL-5 protein with His tag (human) (UniProt P05113); assay: ELISA, biotin-human IL-5 on streptavidin; antibody 0.1067 nM
[23] = molecular target: recombinant human IL-5 protein with His tag (human) (UniProt P05113); assay: ELISA, biotin-human IL-5 on streptavidin; antibody 0.5333 nM
[24] = molecular target: recombinant human IL-5 protein with His tag (human) (UniProt P05113); assay: ELISA, biotin-human IL-5 on streptavidin; antibody 2.6667 nM
[25] = molecular target: recombinant human IL-5 protein with His tag (human) (UniProt P05113); assay: ELISA, biotin-human IL-5 on streptavidin; antibody 13.3333 nM
[26] = molecular target: recombinant human IL-5 protein (human) (UniProt P05113); assay: FACS, biotin-IL-5 bound to CHOK1 hIL-5Ra/CSF2RB cells with Ab 0.0004 nM
[27] = molecular target: recombinant human IL-5 protein (human) (UniProt P05113); assay: FACS, biotin-IL-5 bound to CHOK1 hIL-5Ra/CSF2RB cells with Ab 0.0021 nM
[28] = molecular target: recombinant human IL-5 protein (human) (UniProt P05113); assay: FACS, biotin-IL-5 bound to CHOK1 hIL-5Ra/CSF2RB cells with Ab 0.0107 nM
[29] = molecular target: recombinant human IL-5 protein (human) (UniProt P05113); assay: FACS, biotin-IL-5 bound to CHOK1 hIL-5Ra/CSF2RB cells with Ab 0.0533 nM
[30] = molecular target: recombinant human IL-5 protein (human) (UniProt P05113); assay: FACS, biotin-IL-5 bound to CHOK1 hIL-5Ra/CSF2RB cells with Ab 0.2667 nM
[31] = molecular target: recombinant human IL-5 protein (human) (UniProt P05113); assay: FACS, biotin-IL-5 bound to CHOK1 hIL-5Ra/CSF2RB cells with Ab 1.3333 nM
[32] = molecular target: recombinant human IL-5 protein (human) (UniProt P05113); assay: FACS, biotin-IL-5 bound to CHOK1 hIL-5Ra/CSF2RB cells with Ab 6.6667 nM
[33] = molecular target: recombinant human IL-5 protein (human) (UniProt P05113); assay: FACS, biotin-IL-5 bound to CHOK1 hIL-5Ra/CSF2RB cells with Ab 33.3333 nM
[34] = molecular target: recombinant human IL-5 protein with His tag (human) (UniProt P05113); assay: cell-based or functional assay

RLU, CTLL-2 proliferation with IL-5, Ab 0.000170667 nM [1]: 57400 RLU and 51000 RLU | RLU, CTLL-2 proliferation with IL-5, Ab 0.000853333 nM [1]: 58600 RLU and 53800 RLU | RLU, CTLL-2 proliferation with IL-5, Ab 0.004266667 nM [1]: 57900 RLU and 48200 RLU | RLU, CTLL-2 proliferation with IL-5, Ab 0.02133333 nM [1]: 59800 RLU and 55900 RLU | RLU, CTLL-2 proliferation with IL-5, Ab 0.1066667 nM [1]: 58200 RLU and 53500 RLU | RLU, CTLL-2 proliferation with IL-5, Ab 0.5333334 nM [1]: 56200 RLU and 50500 RLU | RLU, CTLL-2 proliferation with IL-5, Ab 2.666667 nM [1]: 51200 RLU and 46200 RLU | RLU, CTLL-2 proliferation with IL-5, Ab 13.33333 nM [1]: 45800 RLU and 46300 RLU | RLU, CTLL-2 proliferation with IL-5, Ab 66.66666 nM [1]: 43200 RLU and 34400 RLU | RLU, CTLL-2 proliferation with IL-5, Ab 3.41333E-05 nM [1]: 58600 RLU and 55000 RLU | RLU, TF-1 proliferation with IL-5, Ab 0.00001 nM [1]: 113000 RLU and 118000 RLU | RLU, TF-1 proliferation with IL-5, Ab 0.00003 nM [1]: 112000 RLU and 116000 RLU | RLU, TF-1 proliferation with IL-5, Ab 0.00017 nM [1]: 112000 RLU and 121000 RLU | RLU, TF-1 proliferation with IL-5, Ab 0.00085 nM [1]: 115000 RLU and 117000 RLU | RLU, TF-1 proliferation with IL-5, Ab 0.00427 nM [1]: 116000 RLU and 127000 RLU | RLU, TF-1 proliferation with IL-5, Ab 0.02133 nM [1]: 108000 RLU and 131000 RLU | RLU, TF-1 proliferation with IL-5, Ab 0.10667 nM [1]: 108000 RLU and 114000 RLU | RLU, TF-1 proliferation with IL-5, Ab 0.53333 nM [1]: 103000 RLU and 106000 RLU | RLU, TF-1 proliferation with IL-5, Ab 2.66667 nM [1]: 101000 RLU and 106000 RLU | RLU, TF-1 proliferation with IL-5, Ab 13.33333 nM [1]: 101000 RLU and 102000 RLU | OD450 nm [2]: 0.082 OD450 nm and 0.08 OD450 nm | OD450 nm [3]: 0.08 OD450 nm and 0.078 OD450 nm | OD450 nm [4]: 0.074 OD450 nm and 0.077 OD450 nm | OD450 nm [5]: 0.079 OD450 nm and 0.076 OD450 nm | OD450 nm [6]: 0.078 OD450 nm | OD450 nm [7]: 0.079 OD450 nm and 0.078 OD450 nm | OD450 nm [8]: 0.09 OD450 nm and 0.088 OD450 nm | OD450 nm [9]: 0.172 OD450 nm and 0.07 OD450 nm | Fluorescence intensity [10]: 88 MFI | Fluorescence intensity [11]: 83 MFI | Fluorescence intensity [12]: 85 MFI | Fluorescence intensity [13]: 86 MFI | Fluorescence intensity [14]: 88 MFI | Fluorescence intensity [15]: 84 MFI | Fluorescence intensity [16]: 83 MFI | Fluorescence intensity [17]: 84 MFI
Substance: hIgG control (human IgG) (antibody)

OD450 nm [18]: 0.076 and 0.075 | OD450 nm [19]: 0.075 | OD450 nm [20]: 0.078 and 0.072 | OD450 nm [21]: 0.074 and 0.079 | OD450 nm [22]: 0.08 and 0.079 | OD450 nm [23]: 0.08 and 0.077 | OD450 nm [24]: 0.079 | OD450 nm [25]: 0.108 and 0.115
Substance: mIgG control (antibody)

RLU, CTLL-2 cell proliferation stimulated by IL-5, Ab conc. 0.000170667 nM [1]: 57400 RLU and 51000 RLU | RLU, CTLL-2 cell proliferation stimulated by IL-5, Ab conc. 0.000853333 nM [1]: 58600 RLU and 53800 RLU | RLU, CTLL-2 cell proliferation stimulated by IL-5, Ab conc. 0.004266667 nM [1]: 57900 RLU and 48200 RLU | RLU, CTLL-2 cell proliferation stimulated by IL-5, Ab conc. 0.02133333 nM [1]: 59800 RLU and 55900 RLU | RLU, CTLL-2 cell proliferation stimulated by IL-5, Ab conc. 0.1066667 nM [1]: 58200 RLU and 53500 RLU | RLU, CTLL-2 cell proliferation stimulated by IL-5, Ab conc. 0.5333334 nM [1]: 56200 RLU and 50500 RLU | RLU, CTLL-2 cell proliferation stimulated by IL-5, Ab conc. 2.666667 nM [1]: 51200 RLU and 46200 RLU | RLU, CTLL-2 cell proliferation stimulated by IL-5, Ab conc. 13.33333 nM [1]: 45800 RLU and 46300 RLU | RLU, CTLL-2 cell proliferation stimulated by IL-5, Ab conc. 66.66666 nM [1]: 43200 RLU and 34400 RLU | RLU, CTLL-2 cell proliferation stimulated by IL-5, Ab conc. 3.41333E-05 nM [1]: 58600 RLU and 55000 RLU | RLU, TF-1 cell proliferation stimulated by IL-5, Ab conc. 0.00001 nM [1]: 113000 RLU and 118000 RLU | RLU, TF-1 cell proliferation stimulated by IL-5, Ab conc. 0.00003 nM [1]: 112000 RLU and 116000 RLU | RLU, TF-1 cell proliferation stimulated by IL-5, Ab conc. 0.00017 nM [1]: 112000 RLU and 121000 RLU | RLU, TF-1 cell proliferation stimulated by IL-5, Ab conc. 0.00085 nM [1]: 115000 RLU and 117000 RLU | RLU, TF-1 cell proliferation stimulated by IL-5, Ab conc. 0.00427 nM [1]: 116000 RLU and 127000 RLU | RLU, TF-1 cell proliferation stimulated by IL-5, Ab conc. 0.02133 nM [1]: 108000 RLU and 131000 RLU | RLU, TF-1 cell proliferation stimulated by IL-5, Ab conc. 0.10667 nM [1]: 108000 RLU and 114000 RLU | RLU, TF-1 cell proliferation stimulated by IL-5, Ab conc. 0.53333 nM [1]: 103000 RLU and 106000 RLU | RLU, TF-1 cell proliferation stimulated by IL-5, Ab conc. 2.66667 nM [1]: 101000 RLU and 106000 RLU | RLU, TF-1 cell proliferation stimulated by IL-5, Ab conc. 13.33333 nM [1]: 101000 RLU and 102000 RLU | Fluorescence intensity [26]: 86 | Fluorescence intensity [27]: 81 | Fluorescence intensity [28]: 83 | Fluorescence intensity [29]: 83 | Fluorescence intensity [30]: 84 | Fluorescence intensity [31]: 83 | Fluorescence intensity [32]: 85 | Fluorescence intensity [33]: 80
Substance: mIgG control (mouse IgG) (antibody)

TF1 (IC50), TF1 proliferation induced by IL-5 [34]: 10 pM
Substance: Mepolizumab (antibody)

From US20220010008A1
